Tests used:
[1] = target: T1, synthetic human eotaxin (predicted mature protein consisting of amino acids 24-97) (human, UniProt P51671 24-97); experiment: radiolabeled eotaxin on 5×10^5 transfected L1-2 cells, with or without 125 nM unlabeled eotaxin
T1 construct: also called clone #25 polypeptide; synthetic mature eotaxin
Procedure: Figure 11: FIG. 11 is a bar graph illustrating the binding of human eotaxin to CKR-3 transfected L1-2 cells. Radiolabeled eotaxin was incubated with 5 ×10^5 transfected cells or untransfected L1-2 cells.

[2] = target: T1, synthetic human eotaxin (predicted …); experiment: Scatchard analysis of competition of unlabeled eotaxin with 125I-eotaxin on purified human eosinophils
Procedure: Binding of RANTES, MIP-1α and human eotaxin was carried out in binding buffer consisting of 50 mM HEPES supplemented with 1 mM CaCl_2, 5 mM MgCl_2 and 0.5% BSA. […] The final reaction volume was 200 μls. Total binding was carried out in the absence of unlabeled chemokines, and non-specific binding was determined by incubating cells with radiolabeled chemokine in the presence of 250 nM of cold chemokine. At the end of incubation, cells were washed 3 times in binding buffer plus 0.5 M NaCl. The cell pellets were transferred into LP3 tubes and counted in a gamma counter.
RANTES and MIP-1a were not able to compete with eotaxin under the conditions used. […] The observed dissociation constant is analogous to other chemokine-receptor dissociation constants.

T1 sequence (P51671 24-97): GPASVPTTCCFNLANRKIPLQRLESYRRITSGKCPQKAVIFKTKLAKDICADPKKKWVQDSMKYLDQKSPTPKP

B1: FLAG-tagged human C-C chemokine receptor 3 (CKR-3) expressed on transfected mouse L1-2 pre-B lymphoma cells (receptor)
chain: MDYKDDDDKEFTTSLDTVETFGTTSYYDDVGLLCEKADTRALMAQFVPPLYSLVFTFGLLGNVVVVMILIKYRRLRIMTNIYLLNLAISDLLFLVTLPFWIHYVRGHNWVFGHGMCKLLSGFYHTGLYSEIFFIILLTIDRYLAIVHAVFALRARTVTFGVITSIVTWGLAVLAALPEFIFYETEELFEETLCSALYPEDTVYSWRHFHTLRMTIFCLVLPLLVMAICYTGIIKTLLRCPSKKKYKAIRLIFVIMAVFFIFWTPYNVAILLSSYQSILFGNDCERTKHLDLVMLVTEVIAYSHCCMNPVIYAFVGERFRKYLRHFFHRHLLMHLGRYIPFLPSEKLERTSSVSPSTAEPELSIVF
notes: also called C-C CKR-3; CC-CKR-3
[1]
  binding result: binds

B2: receptor for eotaxin on purified human eosinophils (single class of high affinity binding sites) (receptor)
chain: MTTSLDTVETFGTTSYYDDVGLLCEKADTRALMAQFVPPLYSLVFTFGLLGNVVVVMILIKYRRLRIMTNIYLLNLAISDLLFLVTLPFWIHYVRGHNWVFGHGMCKLLSGFYHTGLYSEIFFIILLTIDRYLAIVHAVFALRARTVTFGVITSIVTWGLAVLAALPEFIFYETEELFEETLCSALYPEDTVYSWRHFHTLRMTIFCLVLPLLVMAICYTGIIKTLLRCPSKKKYKAIRLIFVIMAVFFIFWTPYNVAILLSSYQSILFGNDCERTKHLDLVMLVTEVIAYSHCCMNPVIYAFVGERFRKYLRHFFHRHLLMHLGRYIPFLPSEKLERTSSVSPSTAEPELSIVF
[2]
  Kd: 4.7 nM
